We go through seven sequences from the supplement of paper PMC11316812.

For one data set, the system named is hTERT-HMEC. Nature of the data set: percentage of EdU-negative (G0-arrested) nuclei per well, 72 h; higher = more G0 arrest. The conditions noted are these: reference: sequence is the full UniProt precursor, the tested protein was the secreted form or ectodomain.
In the next data set the test system is MCF7. The description is as above. To be noted: reference: sequence is the full UniProt precursor, the tested protein was the secreted form or ectodomain.
[1] abbreviates: protein concentration 0.0225 µM.
Where [2] appears, read: protein concentration 0.026505 µM.
Setting [3] is: protein concentration 0.26505 µM.
The mark [4] stands for this setting: protein concentration 0.01575 µM.
Where [5] appears, read: protein concentration 0.1575 µM.
The mark [6] stands for this setting: protein concentration 0.03125 µM.
[7] abbreviates: protein concentration 0.3125 µM.

± gives the standard deviation of the averaged measurements.
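Note: secreted proteins added to cultured cells, EdU pulse at the end, nuclei found by Hoechst imaging, EdU status from nuclear versus surrounding ring intensity ratio, PBS as neutral control.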

Take “MDFGLALLLAGLLGLLLGQSLQVKPLQVEPPEPVVAVALGASRQLTCRLACADRGASVQWRGLDTSLGAVQSDTGRSVLTVRNASLSAAGTRVCVGSCGGRTFQHTVQLLVYAFPDQLTVSPAALVPGDPEVACTAHKVTPVDPNALSFSLLVGGQELEGAQALGPEVQEEEEEPQGDEDVLFRVTERWRLPPLGTPVPPALYCQATMRLPGLELSHRQAIPVLHSPTSPEPPDTTSPESPDTTSPESPDTTSQEPPDTTSPEPPDKTSPEPAPQQGSTHTPRSPGSTRTRRPEISQAGPTQGEVIPTGSSKPAGDQLPAALWTSSAVLGLLLLALPTYHLWKRCRHLAEDDTHPPASLRLLPQVSAWAGLRGTGQVGISPS”: the “percentage of EdU-negative” value with hTERT-HMEC (setting [1]) was found to be 5.3 ± 0.25%; with hTERT-HMEC (protein concentration 0.225 µM), 5.85 ± 0.98%; in the data set on MCF7 (setting [1]) it was 27.1 ± 4.2%; in the data set with MCF7 (protein concentration 0.225 µM), 26.3 ± 1.4%.
As to “MKSLVLLLCLAQLWGCHSAPHGPGLIYRQPNCDDPETEEAALVAIDYINQNLPWGYKHTLNQIDEVKVWPQQPSGELFEIEIDTLETTCHVLDPTPVARCSVRQLKEHAVEGDCDFQLLKLDGKFSVVYAKCDSSPDSAEDVRKVCQDCPLLAPLNDTRVVHAAKAALAAFNAQNNGSNFQLEEISRAQLVPLPPSTYVEFTVSGTDCVAKEATEAAKCNLLAEKQYGFCKATLSEKLGGAEVAVTCMVFQTQPVSSQPQPEGANEAVPTPVVDPDAPPSPPLGAPGLPPAGSPPDSHVLLAAPPGHQLHRAHYDLRHTFMGVVSLGSPSGEVSHPRKTRTVVQPSVGAAAGPVVPPCPGRIRHFKV”, the “percentage of EdU-negative” value was determined as 4.56 ± 0.2% with hTERT-HMEC (setting [2]), 6.7 ± 0.16% in the data set with hTERT-HMEC (setting [3]), 26.1 ± 1.4% in the data set with MCF7 (setting [2]) and 26.2 ± 2.4% in the data set on MCF7 (setting [3]).
With “MAAVVAATRWWQLLLVLSAAGMGASGAPQPPNILLLLMDDMGWGDLGVYGEPSRETPNLDRMAAEGLLFPNFYSANPLCSPSRAALLTGRLPIRNGFYTTNAHARNAYTPQEIVGGIPDSEQLLPELLKKAGYVSKIVGKWHLGHRPQFHPLKHGFDEWFGSPNCHFGPYDNKARPNIPVYRDWEMVGRYYEEFPINLKTGEANLTQIYLQEALDFIKRQARHHPFFLYWAVDATHAPVYASKPFLGTSQRGRYGDAVREIDDSIGKILELLQDLHVADNTFVFFTSDNGAALISAPEQGGSNGPFLCGKQTTFEGGMREPALAWWPGHVTAGQVSHQLGSIMDLFTTSLALAGLTPPSDRAIDGLNLLPTLLQGRLMDRPIFYYRGDTLMAATLGQHKAHFWTWTNSWENFRQGIDFCPGQNVSGVTTHNLEDHTKLPLIFHLGRDPGERFPLSFASAEYQEALSRITSVVQQHQEALVPAQPQLNVCNWAVMNWAPPGCEKLGKCLTPPESIPKKCLWSH”, the “percentage of EdU-negative” value is 5.59 ± 0.71% in the data set on hTERT-HMEC (setting [4]), 24.2 ± 1.3% in the data set with hTERT-HMEC (setting [5]), 27.9 ± 1.1% in the data set with MCF7 (setting [4]) and 26.9 ± 0.35% in the data set on MCF7 (setting [5]).
For the sequence “MNQVTIQWDAVIALYILFSWCHGGITNINCSGHIWVEPATIFKMGMNISIYCQAAIKNCQPRKLHFYKNGIKERFQITRINKTTARLWYKNFLEPHASMYCTAECPKHFQETLICGKDISSGYPPDIPDEVTCVIYEYSGNMTCTWNAGKLTYIDTKYVVHVKSLETEEEQQYLTSSYINISTDSLQGGKKYLVWVQAANALGMEESKQLQIHLDDIVIPSAAVISRAETINATVPKTIIYWDSQTTIEKVSCEMRYKATTNQTWNVKEFDTNFTYVQQSEFYLEPNIKYVFQVRCQETGKRYWQPWSSLFFHKTPETVPQVTSKAFQHDTWNSGLTVASISTGHLTSDNRGDIGLLLGMIVFAVMLSILSLIGIFNRSFRTGIKRRILLLIPKWLYEDIPNMKNSNVVKMLQENSELMNNNSSEQVLYVDPMITEIKEIFIPEHKPTDYKKENTGPLETRDYPQNSLFDNTTVVYIPDLNTGYKPQISNFLPEGSHLSNNNEITSLTLKPPVDSLDSGNNPRLQKHPNFAFSVSSVNSLSNTIFLGELSLILNQGECSSPDIQNSVEEETTMLLENDSPSETIPEQTLLPDEFVSCLGIVNEELPSINTYFPQNILESHFNRISLLEK [Q5VWK5]”, the “percentage of EdU-negative” value turned out to be 6.46 ± 1.6% in the data set on hTERT-HMEC (setting [1]), 15.8 ± 1.4% in the data set on hTERT-HMEC (protein concentration 0.225 µM), 23.7 ± 1.1% with MCF7 (setting [1]) and 29.2 ± 0.53% with MCF7 (protein concentration 0.225 µM).
For the sequence “MATMVPSVLWPRACWTLLVCCLLTPGVQGQEFLLRVEPQNPVLSAGGSLFVNCSTDCPSSEKIALETSLSKELVASGMGWAAFNLSNVTGNSRILCSVYCNGSQITGSSNITVYRLPERVELAPLPPWQPVGQNFTLRCQVEDGSPRTSLTVVLLRWEEELSRQPAVEEPAEVTATVLASRDDHGAPFSCRTELDMQPQGLGLFVNTSAPRQLRTFVLPVTPPRLVAPRFLEVETSWPVDCTLDGLFPASEAQVYLALGDQMLNATVMNHGDTLTATATATARADQEGAREIVCNVTLGGERREARENLTVFSFLGPIVNLSEPTAHEGSTVTVSCMAGARVQVTLDGVPAAAPGQPAQLQLNATESDDGRSFFCSATLEVDGEFLHRNSSVQLRVLYGPKIDRATCPQHLKWKDKTRHVLQCQARGNPYPELRCLKEGSSREVPVGIPFFVNVTHNGTYQCQASSSRGKYTLVVVMDIEAGSSHFVPVFVAVLLTLGVVTIVLALMYVFREHQRSGSYHVREESTYLPLTSMQPTEAMGEEPSRAE”, the “percentage of EdU-negative” value was found to be 4.98 ± 0.59% in the data set on hTERT-HMEC (setting [1]), 16.4 ± 1.8% with hTERT-HMEC (protein concentration 0.225 µM), 25.2 ± 0.75% in the data set on MCF7 (setting [1]) and 28 ± 1.2% in the data set with MCF7 (protein concentration 0.225 µM).
Take “MALEKSLVRLLLLVLILLVLGWVQPSLGKESRAKKFQRQHMDSDSSPSSSSTYCNQMMRRRNMTQGRCKPVNTFVHEPLVDVQNVCFQEKVTCKNGQGNCYKSNSSMHITDCRLTNGSRYPNCAYRTSPKERHIIVACEGSPYVPVHFDASVEDST”: the “percentage of EdU-negative” value in the data set with hTERT-HMEC (setting [6]) was determined as 4.76 ± 0.11%; in the data set with hTERT-HMEC (setting [7]) it was 4.52 ± 0.25%; with MCF7 (setting [6]), 25.8 ± 0.52%; in the data set with MCF7 (setting [7]), 24.63 ± 0.044%.
As to “MKENVASATVFTLLLFLNTCLLNGQLPPGKPEIFKCRSPNKETFTCWWRPGTDGGLPTNYSLTYHREGETLMHECPDYITGGPNSCHFGKQYTSMWRTYIMMVNATNQMGSSFSDELYVDVTYIVQPDPPLELAVEVKQPEDRKPYLWIKWSPPTLIDLKTGWFTLLYEIRLKPEKAAEWEIHFAGQQTEFKILSLHPGQKYLVQVRCKPDHGYWSAWSPATFIQIPSDFTMNDTTVWISVAVLSAVICLIIVWAVALKGYSMVTCIFPPVPGPKIKGFDAHLLEKGKSEELLSALGCQDFPPTSDYEDLLVEYLEVDDSEDQHLMSVHSKEHPSQGMKPTYLDPDTDSGRGSCDSPSLLSEKCEEPQANPSTFYDPEVIEKPENPETTHTWDPQCISMEGKIPYFHAGGSKCSTWPLPQPSQHNPRSSYHNITDVCELAVGPAGAPATLLNEAGKDALKSSQTIKSREEGKATQQREVESFHSETDQDTPWLLPQEKTPFGSAKPLDYVEIHKVNKDGALSLLPKQRENSGKPKKPGTPENNKEYAKVSGVMDNNILVLVPDPHAKNVACFEESAKEAPPSLEQNQAEKALANFTATSSKCRLQLGGLDYLDPACFTHSFH”, the “percentage of EdU-negative” value in the data set on hTERT-HMEC (setting [6]) stood at 4.8 ± 0.32%; in the data set with hTERT-HMEC (setting [7]) it was 5.37 ± 0.74%; in the data set with MCF7 (setting [6]), 26.2 ± 3.5%; with MCF7 (setting [7]) it was 26.4 ± 0.51%.
